{"source": "patent US20240280570A1", "about": "(KING ABDULLAH UNIVERSITY OF SCIENCE AND TECHNOLOGY, published 2024)", "target": "T1, FRB-24-mCherry-Wp3-TwinStrep", "T1 construct": "also called Negative control (mCherry); FRB-mCherry fusion", "test": "OECT transfer curves (ID against VG), PEDOT:PSS channel", "data": [{"binder": "GFPnanobody-8aa-SpyCatcher-3C cleavage site-His10 (VHH, also called anti-GFP nanobody; GFP nanobody-SpyCatcher) VHH: QVQLVESGGALVQPGGSLRLSCAASGFPVNRYSMRWYRQAPGKEREWVAGMSSAGDRSSYEDSVKGRFTISRDDARNTVYLQMNSLKPEDTAVYYCNVNVGFEYWGQGTQVTVSS", "values": [{"measurement": "binding result", "value": "no binding (tested: 2 x 10^-8 M)"}]}]}
